Molecular target: F-actin (actin from rabbit skeletal muscle) (rabbit) (UniProt P68135)

Substance: Myo IX headΔext (motor domain lacking the N-terminal extension) (domain or fragment)
- run length λ of Qdot-labelled myosin moving along immobilised actin filaments (stepping assay): 2.9 µm
